Test: soluble fraction after stress (log2 fold change); higher = more stays soluble; pooled small domains, quantitative proteomics
Conditions: stress: 75 degC
With “HMDFDQELFDKIVEATMDEARAAMDTDDKNVREERWNKLIEHWHELFLEDYPEMDKYLEEITYKFQKNPAT” the “soluble fraction (log2)” value was -0.662.
In the case of “HMDFEVGTVKWFNTKKGYGFITRDQGEDIFVHFRNIKGQGRRSLSDGERVSFVVTHGDKGLQADQVSP”, the “soluble fraction (log2)” value is reported as -1.25.
With “HMDFFTAAPEEDEIGKRIDVYIAEYKEELSRSRVQKLIENGLVTVNGKAVKSNYKLRKGDILEVEIPDPE” the “soluble fraction (log2)” value was -0.0998.
For “HMDFGPDSAAPLADGSAPEGFDVKGNADSMLYHEPDGRWYDATVAEVWFRTAEAAQAAGFTKAGS”, the “soluble fraction (log2)” value was -0.119.
With “HMDFNNQLKRIRESNGLTQEQLAKILNVSRQSISSWEVGRNFPDLEMIVIISKEFNISLDQLIMG” the “soluble fraction (log2)” value was -3.02.
In the case of “HMDFQTDVFISRFAELKKESGETNKDLQDVFELSLSALINYQTGKRIPDIAFLHKLAQHFGVSADYLLGLS”, the “soluble fraction (log2)” value is reported as -0.277.
In the case of “HMDFRQALNTSADSDANKVALLESIVKGKYVSSTVNLLRRVITLRRGRSIDATLAAYSHYVSIR”, the “soluble fraction (log2)” value is reported as 0.155.
In the case of “HMDFSVTIKGTSFPVMVSLKKMKQVRLKVFPSGEIKLSAPVGTPEKWIVEYLNDKMSWIEEKMDLFVQ”, the “soluble fraction (log2)” value is reported as -1.26.
With “HMDFTMSEIQTAMAALPRGYRTVVQLYLVDGYSHKEIAEMLGVDVNTSKSQLSRGRKQLQAFLAAMS” the “soluble fraction (log2)” value was -0.152.
For “HMDFYIVLGVDRAASVSDVKRAYRRLARKYHPDINPGDREAEAFFLRVTEAYETLIDPDRRQDYDVNG”, the “soluble fraction (log2)” value was -1.06.
With “HMDFYPARVKWFNKSKGFGFANIFKSNDDIFLHIETLKRSGLSDLETGEAIVLTVTEGPRGKMADTILTWD” the “soluble fraction (log2)” value was -0.531.
In the case of “HMDGDFGMNLDWQPSEHFPTLARQAGIPADHITAEAIAEFRSYWIGQGKAMTQYQWDHKLLTNLKATKTR”, the “soluble fraction (log2)” value is reported as -1.19.
With “HMDGEAQTYVEYGKWFPADLPLEAVRQLADGVPVTKELVAALNPRRSEWEEIKAGLDKIGYPNELL” the “soluble fraction (log2)” value was -0.0206.
For “HMDGEITLYKVVGYIKASDFDDKKNGFVIADDYITKRQAEDTMYEWKRKKTYPYLEIKEYKGKDPYK”, the “soluble fraction (log2)” value was 0.255.
With “HMDGLAEQLFNILREELESGDYKPGQKLMSESALAQKYGVSRLTVRAAIARLSALDYVETRNGEGSFVKKR” the “soluble fraction (log2)” value was -1.78.
With “HMDGLDFIINENGKIANINEEGELLAKGENIMLGYYKDSISTNNTINNGWLHTGDIAKIDNDGFIYL” the “soluble fraction (log2)” value was -0.0909.
In the case of “HMDGMNEELYQKFFALVGNPDEGKRISQAKAAQALGYSSAVVSAYKNRTYNGNIKAFEDAVQAWLKREERR”, the “soluble fraction (log2)” value is reported as 0.17.
For “HMDGPELYESMKAIVPDQLDRTIFLTGGAYTPRAQEFLARVPNQQMEKPFEFEALRSLLARLT”, the “soluble fraction (log2)” value was 0.128.
With “HMDGTEVTTEPPGAQVEYEGKQFGPTPARIPGLVAGKSLHITLPGYLEVKPKIKAVPKDGEPLSFTLTAI” the “soluble fraction (log2)” value was -0.0613.
For “HMDGVEVVTKPAGAQIEFAGKSYGPSPVHIPGLVAGSQLILRLPGFQAATVRLRTAPDKSKALEYTLQPA”, the “soluble fraction (log2)” value was -0.278.
For “HMDGVLVYKEGMTVADMATGLGKTIAQVVMKLMQLGIMANQNQSVDRETVELVALDFGYELKD”, the “soluble fraction (log2)” value was -2.27.
For “HMDGVSAEAVKSHIKTLIDGEGAKILSDDTLVDLLNAKGFDIARRTVAKYREAMGIGSSVQRRRQKKMG”, the “soluble fraction (log2)” value was 0.00787.
In the case of “HMDGYLQLASKKNELITQLKTPPKPKRLFKDFEDRVYLITEYKVFVVSIFQNEFRLRPVNKDDFYRYTT”, the “soluble fraction (log2)” value is reported as 0.293.
With “HMDGYTAVDKAVSDQYYTKENQLYFVSMGNFFSLGAKKIEGADISSFQILTTEYARDLQHLYFNGKV” the “soluble fraction (log2)” value was -0.224.
For “HMDHFFSKYDSIVNHTVQKKETLFGISKKYGLTINEVIKFNPGIQIDKLKRRSVLIIPLMKKN”, the “soluble fraction (log2)” value was -1.07.
In the case of “HMDHKSALQELLAPRGLQPSYRLVEEAGPAHARVFTSEVSVDGVARGSGTGTTIKMSEQAAAREALASLG”, the “soluble fraction (log2)” value is reported as 0.249.
For “HMDHKSQLQEWAQSTLGETPRYVTIAETGPDHDKELTVELIIGRKSYSIAKGKSKKQAEQSAARIALGLLM”, the “soluble fraction (log2)” value was -1.99.
With “HMDHKSSYWSVKEANLFPELLKQFGSQWSLISDKLGTKSTTMVRNYYQRNAAQLGWKSVVEEADFKRNA” the “soluble fraction (log2)” value was -0.585.
In the case of “HMDHTYKHIELTGSSEKGIEEAVQNALAKASESVQNMRWLEVTDTRGHIEDGRVAHWQVTVKVGFTL”, the “soluble fraction (log2)” value is reported as 0.213.
For “HMDHVEDRMVLEVVLKKLTEEERRIVMLHAVSGLKHREIAKALDIPLSTVLSKYKRTLKKLEAYLMEME”, the “soluble fraction (log2)” value was -1.72.
For “HMDIADKLTKREFEIFIAIAMNKSRFDIANELGLSAKTVSNGLTVIKRKLNAVPSQFSAIAAKHGYIG”, the “soluble fraction (log2)” value was -2.68.
With “HMDIAYFSNAELNDAFIQFLNMRQEAGKQLNGYQIQILTEKLERVADTDEDRISAVKNAIAGGWSNFYPPK” the “soluble fraction (log2)” value was -0.607.
With “HMDIDASEVRGIISQYINEPDGRVSYILETIQKKYRYLPEEAIRIVAQELEVPLTQLFGVATFYAAFSL” the “soluble fraction (log2)” value was 0.188.
For “HMDIDLNTIKKITLDDIHAFLSYLTTTYHSKAATRARKASSIRVFFNYLSAKANLIEVNPAQNLETPKLD”, the “soluble fraction (log2)” value was 0.165.
In the case of “HMDIEELLSRSTDRLSRQTEIRRLLADAQGRPNISSLARRFKVARRTVIRDLQELIRRGEVPPEIYPK”, the “soluble fraction (log2)” value is reported as -1.1.
With “HMDIEFSDELRTFIDEWSKKEGGLVMMLHRIQNEYGFIPRTAAEKLSLISGIPLARIYGVITFYHFFKT” the “soluble fraction (log2)” value was -0.499.
For “HMDIGNKIKELRTEQKMTQSDLAERLGVTKSSISSYENGSRLPSYDILLKIARIFKVSTDILLG”, the “soluble fraction (log2)” value was -1.47.
With “HMDIGTRQRIIAAAMELFRQKGMDGMSMRELAERAGVNKGLLHYYFTTKEAIFREVFVHQVEM” the “soluble fraction (log2)” value was -0.084.
With “HMDIIIEEGIDESLSTDDAILDLLGRASDAFSNAQKALLEGDLGSYQKLIEQAERLVKKATELLGENN” the “soluble fraction (log2)” value was -0.377.
With “HMDIMNNILINRIKKILTEQNMSKADLSRLTGISNSSLSEYLNGKYEPKQDKIALIAKALHVSPAWLMGF” the “soluble fraction (log2)” value was -1.22.
In the case of “HMDINNTNFSRDVDNLLQNEEFIKWRIFRTKEWEDYWENFRKENPHMEDALQEAISRFNAVK”, the “soluble fraction (log2)” value is reported as 0.264.
With “HMDINVDILPLLKTMTDTLRKVIELDIPFLKDARVQRVNSLDELLLRADITTAEKFRKVFEAYQIEADFGK” the “soluble fraction (log2)” value was -0.976.
In the case of “HMDIPDIGHNVRIEVDGHNGKTTHEGIILHPAAPNHITIKLANGYNASYKLEEIINIEILGELGDDSKI”, the “soluble fraction (log2)” value is reported as -0.136.
For “HMDIPITFEQLPAKAQAFVKQYFKIEEIASVWRDDDIHDQDYKVYFNDGSEIEFYANGDWEEV”, the “soluble fraction (log2)” value was -0.827.
With “HMDIPTSAEAVRAYLASGFIKGIGEATARMLVDKFGAETLEIIKTEPMKLTKISGIGPKKAKMIHESYLEK” the “soluble fraction (log2)” value was 0.12.
With “HMDIRLMPGTVLTREYQGIEHRVTVAQDGQYEFEGRRYPSLSMIAREITGTRWSGPLFFGVK” the “soluble fraction (log2)” value was -1.09.
For “HMDISEIEKRLLDFLEMPRSRKEIAEHLGIRTISYAIQTYITPLIDKKLVKMTIPESPRSHSQQYVRIN”, the “soluble fraction (log2)” value was -1.92.
For “HMDISRMNLSQTERAVLSVLDSQPLHTEEIIASADLRAGAIHSALISLQLKGLIKQLPGNLYVK”, the “soluble fraction (log2)” value was -0.78.
In the case of “HMDITKPKISFEPGEMVRVVDGPFNDFSGVVEEVNYEKSKVRVAVLIFGRSTPVELQFNQIEK”, the “soluble fraction (log2)” value is reported as -1.37.
With “HMDITTIIADVPGPKTQIKVDIKNTSLHIFGGMNFKKEIDIGDNKEIINIKYINGTLTVKLKT” the “soluble fraction (log2)” value was 0.231.
With “HMDIVGAINKIESMKQDRYLAMHPYSITHSADGYYRTYLPADDGKRKQIKKKSKSDLEKVVIDYWTKRS” the “soluble fraction (log2)” value was -0.242.
In the case of “HMDIVKVYTTARAGETLASVAKRTGVDVARLAQWNDIPLKRAKQKLKTGKALALWVQREHASAYSNAPP”, the “soluble fraction (log2)” value is reported as -1.78.
For “HMDIVQLSEKINVMKMEIPAQAIGKTVLEVNFRARFDLNIIAIENGGKLVEVIKPDYVFREGDILFLSGS”, the “soluble fraction (log2)” value was -3.76.
In the case of “HMDIYENIDKELSKQGKSRRKLAIAAGIPPSTFQSMMERKRGLSVENLRKIAEVLNLKWYDLL”, the “soluble fraction (log2)” value is reported as -0.985.
With “HMDIYKKFIIPATYFGSRLDHVLSELLPELSRSKIQNMIKQNLVMINGNHAAQKQKVVGDEEIIIKDI” the “soluble fraction (log2)” value was -0.483.
In the case of “HMDKAALGQKLRQARLDKGYTQQSLSEKADIGEVYLSEIERGLKMPSMNLFIKLITALDISADYILR”, the “soluble fraction (log2)” value is reported as -2.94.
For “HMDKDTFGEFENVKLTEEEYNKLVEKLGENNTKLMIEELSTGIASKGYKYKSHYATILSWSRRRVTKLQER”, the “soluble fraction (log2)” value was 0.0858.
In the case of “HMDKEIKILKEKRLDDVQQAIRELSPQKRRVVEMKLYHNSTNQEVADKLAISVNTVKSLYTSALHDLRRIL”, the “soluble fraction (log2)” value is reported as -0.953.
With “HMDKESQTMFRLLTGVSGVGPKVGLAILSVLSPDRVVLAISAGDHKAFTAASGVGPKLGQRIVLELKDKVG” the “soluble fraction (log2)” value was -3.07.
In the case of “HMDKEVLYVTVNDKKVKLDGKNHIFIDIFNYIDFDIKKPNGSIVLKLNGKNAGYMDEIKDGDKIEIYWDK”, the “soluble fraction (log2)” value is reported as -0.535.
With “HMDKEVMEAVLRILYDDDFNPDQRDAILYFFVQELDQRTISEITGAKIGTVKKRIHDGLKKLRQKLAKEDL” the “soluble fraction (log2)” value was -2.04.
With “HMDKGEQILQQALDKLPPKQRQVFEMRYFDEMPYREIATITETSEGALKASYHHAVKKIQQYISHL” the “soluble fraction (log2)” value was -0.604.
For “HMDKGQRGWINLVSVPTARVIIDGYDTGHETPLYGYEVERGKRKVTLISLDGTYERTYEIRIEPGTTTRVR”, the “soluble fraction (log2)” value was -0.779.
In the case of “HMDKIEVVEVDMSKPYEDMTVTELQNVILDKLASNGPVTNQMKKDVSENIYHDSLVNWAKSF”, the “soluble fraction (log2)” value is reported as -0.0122.
With “HMDKIYVYTTRGQVIELPRGSTAIDFAYKIQTDIGNMIIAAIVNDKLVDANYVLHNKDRVKIVTS” the “soluble fraction (log2)” value was -2.57.
For “HMDKLNKELVSRMMDDAAWKELSKDFPWTEQLLEKYMNYVDWKEISRNYNVVWTKSLLEKFKHRLDWHE”, the “soluble fraction (log2)” value was -2.32.
In the case of “HMDKMIFFKNKENNDDNQLVKIGALLIHAAKIDEDFSQEEENIIKQTLINFGAGNKNINEIIEKAKKME”, the “soluble fraction (log2)” value is reported as 0.0233.
In the case of “HMDKMVAVPNVRGIEASEAEATLIAQGLFVEVEKSDSEDANVAYGEVYAQTPKAGNRVEEGTTITIKVRTE”, the “soluble fraction (log2)” value is reported as -0.0615.
With “HMDKNNLHSVLQDVPGIGPKRMKELMRAFGSVEGMKKAGLEELAAVKGMNHKAAEALIQFFR” the “soluble fraction (log2)” value was 0.163.

— the domain aggregation screens of Martell et al. (2025)
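Note: 20 min heating vs room temperature control held 20 min.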
